This note sets out measurements from US12565517B2, “Cyclic peptide having CTLA-4 inhibitory activity and use thereof” (GeneFrontier Corporation, priority 2019, dated 2026).

The target of this assay is T1, CTLA-4 (Homo sapiens, UniProt P16410).
T1 sequence (P16410 36-223): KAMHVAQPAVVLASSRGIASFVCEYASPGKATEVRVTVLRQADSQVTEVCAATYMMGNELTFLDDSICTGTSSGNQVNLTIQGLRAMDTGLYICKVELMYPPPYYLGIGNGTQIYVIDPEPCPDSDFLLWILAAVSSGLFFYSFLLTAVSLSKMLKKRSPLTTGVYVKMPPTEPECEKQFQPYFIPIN
Nature of the assay: ELISA binding of clones after Affinity Maturation with random library (Tables 10, 11). Here is the method:
After each round of Affinity Maturation, the cyclic peptide genes were recovered and subcloned into pET-Mal vector (FIG. 2) in the same manner as described above to perform base sequence analysis. For the 94 single colonies analyzed for sequence, E. coli transformants were inoculated into 100 μL of 2×YT medium containing ampicillin (final concentration 50 μg/mL), incubated at 37° C. for 3-5 hours (OD600=0.5-0.8), then added with IPTG (final concentration 0.5 mM) and incubated at 25° C. overnight. 10 μL of E. coli cultured medium was added with 90 μL of PBS and 40 μL of lysis reagent (20 μL BugBuster Protein Extraction Reagent (Novagen), 20 μL Lysozyme solution 2.5 mg/mL) to lyse E. coli cells for 1 hour at room temperature. The cell lysate was added with 40 μL of 12.5% skim milk solution (TBST) and blocked for 1 hour at room temperature. In parallel, antigen protein was immobilized overnight at 4° C. in 384-well plates at 100 ng/20 μL per well, and each well was washed twice with 100 μL/well of TBST, added with 100 μL/well of 5% skim milk solution (TBST) for blocking for 1 hour at room temperature, and washed twice with 100 μL/well of TBST to obtain antigen-immobilized plates. 20 μL/well of blocking-treated E. coli extract was added to the antigen-immobilized plates and gently stirred at room temperature using a plate mixer. After 1 hour, the plates were washed 5 times with 100 μL/well of TBST, 20 μL/well of anti-FLAG M2-HRP conjugate (1:2000 dilution, Sigma) was added and gently stirred on a plate mixer for 1 hour at room temperature. The plates were washed 5 times with 100 μL/well of TBST, and binding of cyclic peptides to the antigen was detected by 20 μL/well of chromogenic substrate (0.4 mg/mL 3,3′,5,5′-Tetramethyl-benzidine, 0.01% hydrogen peroxide). After 15 minutes of reaction at room temperature, the reaction was stopped with 20 μL/well of 2N HCl, and absorbance at 450 nm was measured using a plate reader (infinite F200: TECAN) (Table 5).
Oligo DNAs of a library were synthesized (see below), in which amino acid residues (positions 1, 4, 8, 10, +1 and +2) (corresponding to X1, […], X8, X10, X+1 and X+2) other than those essential or advantageous for CTLA-4 binding (2H, 3P, 5L, 6P, 7I, 9S, 11H, 12F) identified by alanine scanning were randomized (NNS).
Affinity Maturation was performed in the same manner as described above. The amount of biotinylated CTLA-4 immobilized on the magnetic beads was 10 pmol in the 1st round, 2 pmol in the 2nd round, and 1 pmol in the 3nd-5th rounds, respectively. The washing period was 2 hours for the 1st round, 19 hours for the 2nd round, 67 hours for the 3nd round, 140 hours for the 4th round, and 340 hours for the 5th round. Washing frequency was 1 time (2 hours) in the 1st round, 2 times (every 10 hours) in the 2nd round, 6 times (every 10 hours) in the 3rd round, 14 times (every 10 hours) in the 4th round, and 36 times (every 10 hours) in the 5th round.

The mark [1] stands for this setting: CTLA-4 binding ELISA of clones after Affinity Maturation from random (NNS) library, signal/noise ratio, clones of 4th or 5th round.
Setting [2] is: S/N ratio of CTLA-4 binding in ELISA, clones from 4th or 5th round of Affinity Maturation from random (NNS) library.

In the case of “C4m#19-5th2w-NNS6-75 (GGCWHPWLPIKSPHFCAL; C4m#19-5th2w-NNS6-75)”, the “ELISA S/N(SA)” value under setting [1] amounted to 15.3.
On the same count and under the same terms, then “C4m#19-5th4w-NN6-63 (GGCWHPYLPILSRHFCQA; C4m#19-5th4w-NN6-63)”, with 16.5; and “C4m#19-5th2w-NNS6-79 (GGCRHPFLPIVSRHFCVA; C4m#19-5th2w-NNS6-79)”, with 9.2.
In the case of “C4n#19-5th2w-NNS6-71 (GGCRHPYLPIASPHFCPG; left off: large carriers; small tags and cut ends)”, under setting [1], the “ELISA S/N(SA)” value turned out to be 22.9.
The same measure, in the same setting: then “C4m#19-5th2w-NNS6-26 (GGCLHPFLPIVSIHFCSA; C4m#19-5th2w-NNS6-26)”, with 5.8.
The same measure, in the same setting: then “C4m3127-4th-NNS6-7 (GGCRHPFLPIRSPHFCGS; C4m3127-4th-NNS6-7) [Clone C4m3127-4th-NNS6-7]”, with 4.7; and “C4m#19-5th2w-NNS6-37 (GGCIHPFLPIWSIHFCSR; C4m#19-5th2w-NNS6-37)”, with 9.4; and “C4m#19-5th4w-NN6-46-1 (GGCVHPALPIWSFHFCPS; C4m#19-5th4w-NN6-46-1)”, with 14.2.
Same read-out and setting: then “C4m#19-5th4w-NN6-34 (GGCFHPFLPIRSDHFCSR; C4m#19-5th4w-NN6-34)”, with 32.2.
As for “C4m#19-5th2w-NNS6-67 (GGCQHPWLPISSWHFCPR; C4m#19-5th2w-NNS6-67)”, the “ELISA S/N(SA)” value under setting [1] was 25.5.
For “C4m#19-5th4w-NN6-89 (GGCMHPFLPIISQHFCAF; C4m#19-5th4w-NN6-89)”, the “ELISA S/N(SA)” value under setting [1] came out at 8.3.
In the case of “C4m#19-5th4w-NN6-86 (GGCAHPVLPIRSLHFCPH; C4m#19-5th4w-NN6-86)”, under setting [1], the “ELISA S/N(SA)” value turned out to be 19.7.
The same measure, in the same setting: with “C4m3127-4th-NNS6-85 (GGCGHPFLPIFSSHFCPL; C4m3127-4th-NNS6-85) [Clone C4m3127-4th-NNS6-85]” the figure was 9.1.
With “C4m#19-5th2w-NNS6-93 (GGCFHPFLPIQSRHFCCR; C4m#19-5th2w-NNS6-93)”, the “ELISA S/N(SA)” value under setting [2] turned out to be 3.4.
In the case of “C4m#19-5th4w-NN6-90 (GGCRHPWLPIVSYHFCSS; C4m#19-5th4w-NN6-90)”, the “ELISA S/N(SA)” value under setting [1] is 21.2.
For the substance “C4m#19-5th2w-NNS6-94 (GGCFHPYLPISSVHFCGR; C4m#19-5th2w-NNS6-94)”, the “ELISA S/N(SA)” value under setting [1] was 22.4.
Still for that read-out and setting: then “C4m#19-5th2w-NNS6-87 (GGCLHPYLPIFSVHFCAL; C4m#19-5th2w-NNS6-87)”, with 4.5; and “C4m#19-5th4w-NN6-47 (GGCPHPWLPIFSRHFCPV; C4m#19-5th4w-NN6-47)”, with 34.2.
The same measure, in the same setting: with “C4m3127-4th-NNS6-17 (GGCRHPVLPIVSLHFCPG; C4m3127-4th-NNS6-17) [Clone C4m3127-4th-NNS6-17]” the figure was 20.4; with “C4m#19-5th4w-NN6-51 (GGCWHPYLPIVSWHFCSR; C4m#19-5th4w-NN6-51)”, 22.1; with “C4m#19-5th4w-NN6-32 (GGCPHPFLPIWSVHFCPF; C4m#19-5th4w-NN6-32)”, 27.2.
The same measure, in the same setting: with “C4m#19-5th2w-NNS6-8 (GGCRHPFLPIFSLHFCAR; C4m#19-5th2w-NNS6-8)” the figure was 16.5; with “C4m#19-5th4w-NN6-38 (GGCSHPFLPIFSLHFCPV; C4m#19-5th4w-NN6-38)”, 16.6.
As to “C4m#19-5th2w-NNS6-34 (GGCCHPFLPIYSVHFCAS; C4m#19-5th2w-NNS6-34)”, the “ELISA S/N(SA)” value under setting [1] was found to be 5.0.
The same measure, in the same setting: then “C4m#19-5th4w-NN6-82 (GGCFHPFLPIRSLHFCCR; C4m#19-5th4w-NN6-82)”, with 28.3.
For “C4m#19-5th4w-NN6-62 (GGCQHPYLPIWSFHFCPF; C4m#19-5th4w-NN6-62)”, the “ELISA S/N(SA)” value under setting [1] was 17.2.
Same read-out and setting: then “C4m#19-5th4w-NN6-15 (GGCLHPFLPIRSVHFCPF; left off: large carriers; small tags and cut ends)”, with 39.9; and “C4m#19-5th2w-NNS6-12 (GGCWHPYLPIRSVHFCGR; C4m#19-5th2w-NNS6-12)”, with 20.4.
The same measure, in the same setting: with “C4m#19-5th2w-NNS6-61 (GGCCHPWLPIRSVHFCPF; C4m#19-5th2w-NNS6-61)” the figure was 4.3; with “C4m#19-5th4w-NN6-64 (GGCWHPVLPIRSVHFCCR; C4m#19-5th4w-NN6-64)”, 13.7; with “C4m#19-5th2w-NNS6-86 (GGCFHPYLPIWSLHFCRS; C4m#19-5th2w-NNS6-86)”, 7.7.
As to “C4m#19-5th4w-NN6-53 (GGCRHPFLPIYSVHFCAC; C4m#19-5th4w-NN6-53)”, under setting [1], the “ELISA S/N(SA)” value is reported as 32.2.
The same measure, in the same setting: with “C4m#19-5th2w-NNS6-45 (GGCRHPFLPIWSVHFCWR; C4m#19-5th2w-NNS6-45)” the figure was 11.0; with “C4m#19-5th4w-NN6-57 (GGCMHPYLPIVSVHFCPC; C4m#19-5th4w-NN6-57)”, 27.7; with “C4m3127-4th-NNS6-60 (GGCWHPFLPISSWHFCGL; C4m3127-4th-NNS6-60) [Clone C4m3127-4th-NNS6-60]”, 11.9.
On the same count and under the same terms, with “C4m#19-5th4w-NN6-80 (GGCRHPFLPIFSWHFCAV; C4m#19-5th4w-NN6-80)” the figure was 3.8; with “C4m#19-6th4w-NN6-5-3 (GGCWHPFLPILSLHFCGW; left off: large carriers; small tags and cut ends)”, 14.7.
Same read-out and setting: then “C4m#19-5th4w-NN6-20 (GGCSHPQLPILSDHFCSA; C4m#19-5th4w-NN6-20)”, with 30.6.
As to “C4m#19-5th4w-NN6-21 (GGCWHPWLPILSPHFCPR; C4m#19-5th4w-NN6-21)”, under setting [1], the “ELISA S/N(SA)” value amounted to 37.5.
The same measure, in the same setting: with “C4m#19-5th4w-NN6-78 (GGCWHPALPIRSWHFCPR; C4m#19-5th4w-NN6-78)” the figure was 27.9.
Same read-out and setting: with “C4m#19-5th4w-NN6-83 (GGCLHPLLPILSVHFCPS; C4m#19-5th4w-NN6-83)” the figure was 12.0.
As to “C4m3127-4th-NNS6-37 (GGCWHPVLPIRSIHFCGC; C4m3127-4th-NNS6-37) [Clone C4m3127-4th-NNS6-37]”, the “ELISA S/N(SA)” value under setting [2] is 3.5.
“C4m#19-5th4w-NN6-6 (GGCMHPFLPIKSSHFCRK; C4m#19-5th4w-NN6-6)”: under setting [1], the “ELISA S/N(SA)” value is recorded as 16.1.
Still for that read-out and setting: then “C4m3127-4th-NNS6-87 (GGCRHPWLPIVSWHFCSR; C4m3127-4th-NNS6-87) [Clone C4m3127-4th-NNS6-87]”, with 21.4; and “C4m#19-5th4w-NN6-67 (GGCLHPFLPIRSVHFCPR; C4m#19-5th4w-NN6-67)”, with 45.4; and “C4m#19-5th2w-NNS6-55 (GGCMHPYLPIKSVHFCPL; C4m#19-5th2w-NNS6-55)”, with 28.3.
Regarding “C4m3127-4th-NNS6-72 (GGCVHPYLPISSIHFCSM; C4m3127-4th-NNS6-72) [Clone C4m3127-4th-NNS6-72]”, under setting [1], the “ELISA S/N(SA)” value was 20.0.
Same read-out and setting: with “C4m#19-5th2w-NNS6-22 (GGCMHPFLPIQSVHFCSR; C4m#19-5th2w-NNS6-22)” the figure was 29.3.
On the same count and under the same terms, with “C4m#19-5th4w-NN6-50 (GGCKHPVLPIWSWHFCRI; C4m#19-5th4w-NN6-50)” the figure was 28.1; with “C4m#19-5th4w-NN6-5-1 (GGCWHPYLPIQSLHFCPF; C4m#19-5th4w-NN6-5-1)”, 14.7.
